Results: patent publication US20230234991A1, “SELF-ASSEMBLED PEPTIDE NANORODS AND USES THEREOF” (TRANSFERT PLUS, SOCIÉTÉ EN COMMANDITE, priority 2020, published 2023)
Where “and” joins values, the source holds several entries; their conditions need not be identical. Equal values may be shown once. Entries after “also recorded” stand apart in the source; their conditions may differ.

Experiments:
[1] = Negative-stain transmission electron microscopy of the assemblies; type: physicochemical
[2] = Atomic force microscopy of the assemblies; type: physicochemical
[3] = Zeta potential; type: physicochemical
[4] = molecular target: T1, TLR2 (Mus musculus, UniProt Q9QUN7); test: TLR-2 stimulation, SEAP activity in HEK-Blue mTLR2 cells; type: cell-based; settings: HEK-Blue mTLR2 cells, 16 h
T1 construct: host or cells: HEK293 (HEK-Blue mTLR2)
Method: TLR-2 stimulation. HEK293 cells stably co-transfected with mTLR2 and SEAP (HEK-Blue mTLR2 cells, InvivoGen) were cultivated in Dulbecco's Modified Eagle's Medium supplemented with 4.5 g/I glucose, 10% (v/v) fetal bovine serum, 100 U/ml penicillin, […], […], 2 mM L-glutamine. At 50-80% confluency, cells were seeded in Hek-Blue detection medium (InvivoGen) at a density of 50,000 cells/well in a 96-well plate containing NRs and controls. After 16 h incubation at 37° C. in 5% CO2, absorbance was monitored at 630 nm.

[5] = Thermal denaturation monitored by CD spectroscopy; type: physicochemical; settings: CD at 222, 212 and 205 nm
[6] = test system: INS-1E cells; type: cell-based, Rat; settings: 24 h, 50×10^−6 m
[7] = test system: HEK293T cells
[8] = test system: macrophage cells (J774A.1)
[9] = test system: dendritic-like cells (DC2.4)

T1 sequence (Q9QUN7 25-784): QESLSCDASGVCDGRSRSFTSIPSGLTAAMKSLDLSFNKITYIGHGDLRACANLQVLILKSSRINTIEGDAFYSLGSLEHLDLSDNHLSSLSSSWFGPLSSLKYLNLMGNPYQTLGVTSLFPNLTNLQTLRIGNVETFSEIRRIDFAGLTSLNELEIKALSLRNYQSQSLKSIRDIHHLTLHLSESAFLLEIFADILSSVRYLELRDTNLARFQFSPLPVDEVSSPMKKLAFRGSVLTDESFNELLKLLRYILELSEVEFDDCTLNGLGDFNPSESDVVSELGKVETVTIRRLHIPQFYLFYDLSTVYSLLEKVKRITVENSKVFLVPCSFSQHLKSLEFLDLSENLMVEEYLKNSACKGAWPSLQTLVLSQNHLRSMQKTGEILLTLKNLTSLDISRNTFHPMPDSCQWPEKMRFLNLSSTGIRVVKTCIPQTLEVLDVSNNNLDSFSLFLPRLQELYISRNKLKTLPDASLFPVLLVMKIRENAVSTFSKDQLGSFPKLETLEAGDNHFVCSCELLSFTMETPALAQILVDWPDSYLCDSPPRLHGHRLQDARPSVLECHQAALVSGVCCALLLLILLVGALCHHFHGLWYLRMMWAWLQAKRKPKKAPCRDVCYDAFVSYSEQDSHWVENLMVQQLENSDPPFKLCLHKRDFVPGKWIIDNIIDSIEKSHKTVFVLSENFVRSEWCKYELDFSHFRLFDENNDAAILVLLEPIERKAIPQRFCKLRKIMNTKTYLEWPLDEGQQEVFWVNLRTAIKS

Ac-KGSGSSNNFGAILSS-NH2 [Ac-KI10]
Morphology ([1]; pH 7.4): rope-like fibrils; also recorded: thick rope-like
Heigth [2]: 7.0 nm and 7.0 ± 0.7 nm
Surface charge [3]: 49 ± 5 mV

HGSGSSNNFGAILSS [HI10]
Morphology of variants of the KI10 sequence [2]: do not adopt a short-like rod confirmation

Pam2CSK4
SEAP activity [4]: SEAP activity was measured

RGSGSSNNFGAILSS [RI10]
Morphology of variants of the KI10 sequence [2]: do not adopt a short-like rod confirmation

islet amyloid polypeptide (KCNTATCATQRLANFLVHSSNNFGAILSSTNVGSNTY; Islet amyloid polypeptide; UniProt P10997 34-70, looked up) [IAPP]
Morphology ([1]; Tris 50×10^−3 M pH 7.4, rotary agitation 48 h, 150×10^−6 M (KKI10 500×10^−6 M)): polymorphic twisted ribbons and fibrils
Thermal denaturation [5]: no melt observed
calcein-AM/ethidium homodimer-1 staining [6]: increase of ethidium homodimer-1 and a decrease of calcein-AM staining
calcein-AM/ethidium homodimer-1 staining [7]: increase of ethidium homodimer-1 and a decrease of calcein-AM staining
Cytotoxicity [8]: high decrease of viability
Cytotoxicity [9]: high decrease of viability
